Test results taken from US20190092846A1.

T1: mouse recombinant TGF-β2 (mouse) (UniProt P27090)
T1 sequence (looked up): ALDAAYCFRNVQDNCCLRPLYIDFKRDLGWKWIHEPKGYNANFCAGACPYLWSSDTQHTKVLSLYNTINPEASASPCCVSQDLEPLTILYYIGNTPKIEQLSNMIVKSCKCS

T2: human TGF-β3 (human) (UniProt P10600)
T2 sequence: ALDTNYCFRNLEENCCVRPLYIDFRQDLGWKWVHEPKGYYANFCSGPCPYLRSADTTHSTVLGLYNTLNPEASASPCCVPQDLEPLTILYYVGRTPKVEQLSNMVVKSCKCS

T3: human recombinant TGF-β2 (human)
T3 sequence: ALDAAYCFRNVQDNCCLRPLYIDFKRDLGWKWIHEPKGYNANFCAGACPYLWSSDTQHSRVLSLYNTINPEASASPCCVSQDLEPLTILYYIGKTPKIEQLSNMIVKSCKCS


What was measured:
[1] = target: T1, mouse recombinant TGF-β2 (mouse)
human TGF-β1 (human) = human TGF-β1 (human) (UniProt P01137); experiment: cell-based or functional assay
Sequence of human TGF-β1 (human) (P01137 279-390 limits assumed): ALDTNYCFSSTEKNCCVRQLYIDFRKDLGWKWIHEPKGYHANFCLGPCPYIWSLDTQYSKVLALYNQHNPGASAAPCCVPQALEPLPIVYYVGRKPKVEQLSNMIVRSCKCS

human TGF-β3 (human) [2] = target: T2, human TGF-β3 (human); experiment: cell-based or functional assay
[3] = target: T3, human recombinant TGF-β2 (human); experiment: cell-based or functional assay
[4] = target: T1, mouse recombinant TGF-β2 (mouse); experiment: cell-based or functional assay
[5] = target: T3, human recombinant TGF-β2 (human); experiment: ratio of the KD values of Table 4
human TGF-β3 (human) [6] = target: T2, human TGF-β3 (human); experiment: BiaCORE (surface plasmon resonance)
[7] = target: T3, human recombinant TGF-β2 (human); experiment: BiaCORE (surface plasmon resonance)

Row | IC50 (read off the curve) (CAGA-12 luciferase reporter gene assay, HEK293T/17) [1] [nM] | RGA (CAGA-12 luc/Smad-2/3 RGA; IC 50 [pM]) (human TGF-β1 (human)) [pM] | RGA (CAGA-12 luc/Smad-2/3 RGA; IC 50 [pM]) (human TGF-β3 (human) [2]) [pM] | RGA (CAGA-12 luc/Smad-2/3 RGA; IC 50 [pM]) [3] [pM] | RGA (CAGA-12 luc/Smad-2/3 RGA; IC 50 [pM]) [4] [pM] | fold lower KD for TGFβ2 than for TGFbeta 3 [5] [fold] | Kd (human TGF-β3 (human) [6]) [nM] | Kd [7] [nM] | Binder
1 | 0.3 | > 100000 | 1230 | 26 | 298 | 16 | 1.18 | 0.073 | CAT-152 (antibody, INN chains, looked up, human IgG4, V domains shown) VH: EVQLVESGGGVVQPGRSLRLSCAASGFTFSSYGMHWVRQAPGKGLEWVAVIWYDGSNKYYADSVKGRFTISRDNSKNTLYLQMDSLRAEDTAVYYCGRTLESSLWGQGTLVTVSS VL: SSELTQDPAVSVALGQTVRITCQGDSLRSYYASWYQQKPGQAPVLVIYGKNNRPSGIPDRFSGSSSGNTASLTITGAQAEDEADYYCNSRDSSSTHRGVFGGGTKLTVL
2 | – | – | – | – | > 100000 | – | – | – | 1D11 (antibody, from another filing, V domains shown) VH: QVQLQQSGPELVRPGASVKLSCKASGYIFITYWMNWVKQRPGQGLEWIGQIFPASGSTNYNEMFEGKATLTVDTSSSTAYMQLSSLTSEDSAVYYCARGDGNYALDAMDYWGQGTSVTVSS VL: DIVLTQSPASLAVSLGQRATISCRASESVDSYGNSFMHWYQQKSGQPPKLLIYLASNLESGVPARFSGSGSRTDFTLTIDPVEADDAATYYCQQNNEDPLTFGAGTKLEIK
